These results are taken from article doi:10.1101/600692v2.

Substrate in data set [1]: C=C(O[C@H]1C=CC=C(C(=O)O)[C@@H]1O)C(=O)O
The data set is described as follows: purified protein. The following applies: with glutamate and ATP; isochorismate made from chorismate by ICS1.

Substrate in data set [2]: O=C(O)c1ccc(O)cc1
The data set is described as follows: purified protein. The following applies: with glutamate and ATP.

B1: PBS3 (AvrPphB SUSCEPTIBLE3) (Arabidopsis thaliana) (protein)
chain: MKPIFDINETFEKQLKDLTSNVKSIQDNLLEEIITPNTKTEYLQRFLIDRFDKELFKKNVPIVSYEDIKPYLDRVVNGESSDVISARTITGFLLSSGTSGGAQKMMPWNNKYLDNLTFIYDLRMQVITKHVKGVEEGKGMMFLFTKQESMTPSGLPARVATSSYFKSDYFKNRPSNWYYSYTSPDEVILCPNNTESLYCHLLCGLVQRDEVVRTGSIFASVMVRAIEVLKNSWEELCSNIRSGHLSNWVTDLGCQNSVSLVLGGPRPELADTIEEICNQNSWKGIVKRLWPNTKYIETVVTGSMGQYVPMLNYYCNDLPLVSTTYGSSETTFGINLDPLCKPEDVSYTFMPNMSYFEFIPMDGGDKNDVVDLEDVKLGCTYEPVVTNFAGLYRMRVGDIVLVTGFYNNAPQFKFVRRENVVLSIDSDKTNEEDLFKAVSQAKLVLESSGLDLKDFTSYADTSTFPGHYVVYLEVDTKEGEEKETAQFELDEEALSTCCLVMEESLDNVYKRCRFKDGSIGPLEIRVVRQGTFDSLMDFFISQGASTGQYKTPRCIKSGKALQVLETCVVAKFFSI
For the protein B1, in “purified protein [1]”, the Km stood at 14.90 µM and the kcat is listed as 472.29 min^-1 (printed as V/Et). In “purified protein [2]”, the Michaelis constant (Km) is given as 311.54 µM and the kcat was 13.46 min^-1 (printed as V/Et).
